Data as given in US20200268910A1 (SANFORD BURNHAM PREBYS MEDICAL DISCOVERY INSTITUTE, published 2020).
Bridge positions count the residues as written; N and C are the ends. Ends that are not written are not given here. FAM = 5(6)-carboxyfluorescein; Ahx = NCCCCCC(=O)O

Assays:
[1] = biological target: mouse CD206 on peritoneal cells from 4T1 tumor-bearing mice (mouse) (UniProt Q61830); experiment: flow cytometry on peritoneal cells of 4T1 tumor mice; 10 µg/mL antibody, then FAM-UNO at 0.5 µg/mL
[2] = biological target: T1, recombinant mouse macrophage mannose receptor rmMMR/CD206 (mouse, UniProt Q61830 20-1388, limits assumed); experiment: fluorescence anisotropy, in solution, 50 nM peptide and 1 µM protein
T1 construct: Bought recombinant protein; also called mouse recombinant CD206; MRC1
T1 sequence (looked up): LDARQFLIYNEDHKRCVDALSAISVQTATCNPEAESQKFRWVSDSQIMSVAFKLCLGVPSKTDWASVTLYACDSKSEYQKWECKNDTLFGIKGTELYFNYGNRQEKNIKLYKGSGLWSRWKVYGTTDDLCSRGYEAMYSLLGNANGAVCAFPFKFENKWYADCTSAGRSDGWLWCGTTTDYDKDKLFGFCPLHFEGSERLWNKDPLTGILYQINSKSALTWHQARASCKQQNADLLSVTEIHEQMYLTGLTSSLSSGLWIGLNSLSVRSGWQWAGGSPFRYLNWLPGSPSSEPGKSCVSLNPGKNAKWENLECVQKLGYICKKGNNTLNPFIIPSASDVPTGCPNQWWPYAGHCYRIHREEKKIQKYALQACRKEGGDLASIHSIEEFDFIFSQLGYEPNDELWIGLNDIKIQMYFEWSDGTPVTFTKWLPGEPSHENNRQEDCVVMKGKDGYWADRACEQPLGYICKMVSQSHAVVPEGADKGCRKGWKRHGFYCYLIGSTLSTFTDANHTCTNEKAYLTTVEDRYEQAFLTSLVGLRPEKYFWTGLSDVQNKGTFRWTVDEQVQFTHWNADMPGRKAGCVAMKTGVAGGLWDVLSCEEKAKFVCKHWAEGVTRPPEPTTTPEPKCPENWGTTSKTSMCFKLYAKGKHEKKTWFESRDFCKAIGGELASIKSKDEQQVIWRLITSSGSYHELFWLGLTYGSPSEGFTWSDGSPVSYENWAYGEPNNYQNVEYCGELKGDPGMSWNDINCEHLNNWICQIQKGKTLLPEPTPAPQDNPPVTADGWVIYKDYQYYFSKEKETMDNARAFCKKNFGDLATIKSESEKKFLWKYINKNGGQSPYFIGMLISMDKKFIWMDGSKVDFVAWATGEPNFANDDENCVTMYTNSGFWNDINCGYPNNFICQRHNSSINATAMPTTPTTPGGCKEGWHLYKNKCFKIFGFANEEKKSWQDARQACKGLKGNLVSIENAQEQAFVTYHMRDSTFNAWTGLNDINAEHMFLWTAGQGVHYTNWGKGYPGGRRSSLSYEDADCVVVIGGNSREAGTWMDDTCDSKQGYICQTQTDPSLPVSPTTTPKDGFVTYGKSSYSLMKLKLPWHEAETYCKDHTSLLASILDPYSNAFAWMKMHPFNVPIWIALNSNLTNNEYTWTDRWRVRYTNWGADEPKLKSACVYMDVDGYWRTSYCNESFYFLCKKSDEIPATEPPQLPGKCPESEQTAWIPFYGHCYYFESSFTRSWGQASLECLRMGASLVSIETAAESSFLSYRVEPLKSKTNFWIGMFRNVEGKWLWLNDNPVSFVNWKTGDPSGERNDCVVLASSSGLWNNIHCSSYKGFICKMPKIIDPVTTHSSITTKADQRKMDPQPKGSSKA
Description: In all experiments, FA signal measurements were done under pseudo first-order conditions with 50 nM singly labelled FAM peptides and 1 μM proteins. […] Assays were carried out in kinetic mode in a total volume of 30 μl at 25° C. on the PHERAstar (BMG Labtech, Germany) microplate reader using an optical module with excitation and emission filters of 485 nm (slit 10 nm) and 520 nm (slit 10 nm), respectively. Dual emission detection mode allows simultaneous recording of intensities that are parallel (l) and perpendicular (1) to the plane of excitation light. Sensitivities of channels (G factor) were corrected with gain adjustment of the photomultiplier tubes (PMTs) using fluorescein as a standard. The background fluorescence (receptor and buffer components in the absence of fluorescent ligand) was subtracted independently from all intensity channels. FA signals at time t after initiation of binding reaction was calculated as parameters r(t) from the equation: […]

recombinant mouse CD163 = recombinant mouse CD163 (mouse, UniProt Q2VLH6 39-1045, limits assumed); experiment: fluorescence anisotropy, in solution, kinetic mode
[3] = biological target: T2, recombinant human macrophage mannose receptor rhMMR/CD206 (human, UniProt P22897 19-1383, limits assumed); experiment: fluorescence anisotropy, in solution, kinetic mode
T2 construct: Bought recombinant protein; also called human recombinant CD206; hCD206
T2 sequence (looked up): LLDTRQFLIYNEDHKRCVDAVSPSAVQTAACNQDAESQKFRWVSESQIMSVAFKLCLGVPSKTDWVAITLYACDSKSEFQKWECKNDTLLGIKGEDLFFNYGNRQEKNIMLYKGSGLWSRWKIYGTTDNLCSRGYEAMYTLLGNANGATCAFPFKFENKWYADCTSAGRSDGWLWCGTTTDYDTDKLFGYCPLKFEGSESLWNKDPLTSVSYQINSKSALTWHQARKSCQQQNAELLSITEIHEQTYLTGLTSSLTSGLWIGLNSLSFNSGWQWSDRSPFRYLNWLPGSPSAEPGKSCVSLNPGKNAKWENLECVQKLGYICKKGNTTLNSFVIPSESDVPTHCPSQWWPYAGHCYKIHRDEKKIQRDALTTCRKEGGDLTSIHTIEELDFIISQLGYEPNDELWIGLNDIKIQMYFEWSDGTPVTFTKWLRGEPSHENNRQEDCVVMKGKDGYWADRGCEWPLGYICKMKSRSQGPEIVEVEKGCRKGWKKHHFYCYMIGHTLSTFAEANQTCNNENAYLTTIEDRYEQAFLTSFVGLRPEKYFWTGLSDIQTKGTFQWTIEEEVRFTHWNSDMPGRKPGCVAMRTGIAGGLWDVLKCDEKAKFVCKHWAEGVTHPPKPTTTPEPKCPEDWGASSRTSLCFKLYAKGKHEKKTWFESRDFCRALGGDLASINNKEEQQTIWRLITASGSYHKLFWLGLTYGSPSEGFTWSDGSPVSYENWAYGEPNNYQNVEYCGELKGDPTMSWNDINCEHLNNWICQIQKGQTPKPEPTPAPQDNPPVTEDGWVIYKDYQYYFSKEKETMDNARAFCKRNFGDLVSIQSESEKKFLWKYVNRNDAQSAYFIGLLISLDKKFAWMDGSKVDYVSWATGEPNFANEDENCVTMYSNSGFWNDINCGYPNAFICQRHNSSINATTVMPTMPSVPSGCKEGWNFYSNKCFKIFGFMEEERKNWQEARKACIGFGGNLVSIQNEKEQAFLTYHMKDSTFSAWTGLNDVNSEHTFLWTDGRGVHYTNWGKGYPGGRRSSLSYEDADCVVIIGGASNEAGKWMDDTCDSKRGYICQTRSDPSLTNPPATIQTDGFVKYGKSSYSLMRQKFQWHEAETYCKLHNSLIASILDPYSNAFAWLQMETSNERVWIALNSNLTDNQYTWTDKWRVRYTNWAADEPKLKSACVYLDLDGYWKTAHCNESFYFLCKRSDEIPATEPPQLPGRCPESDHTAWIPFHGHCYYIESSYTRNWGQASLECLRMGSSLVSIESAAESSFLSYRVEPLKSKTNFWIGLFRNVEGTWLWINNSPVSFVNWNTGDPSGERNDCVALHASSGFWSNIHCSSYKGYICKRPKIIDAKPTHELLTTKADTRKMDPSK

[4] = biological target: T3, mouse CD206 on peritoneal cells from 4T1 tumor-bearing mice (mouse, UniProt Q61830 20-1456); experiment: flow cytometry on peritoneal cells, legend of FIG. 4D
T3 construct: whole, on cells; Primary cells that carry many other proteins; also called MRC1; mannose receptor
T3 sequence (looked up): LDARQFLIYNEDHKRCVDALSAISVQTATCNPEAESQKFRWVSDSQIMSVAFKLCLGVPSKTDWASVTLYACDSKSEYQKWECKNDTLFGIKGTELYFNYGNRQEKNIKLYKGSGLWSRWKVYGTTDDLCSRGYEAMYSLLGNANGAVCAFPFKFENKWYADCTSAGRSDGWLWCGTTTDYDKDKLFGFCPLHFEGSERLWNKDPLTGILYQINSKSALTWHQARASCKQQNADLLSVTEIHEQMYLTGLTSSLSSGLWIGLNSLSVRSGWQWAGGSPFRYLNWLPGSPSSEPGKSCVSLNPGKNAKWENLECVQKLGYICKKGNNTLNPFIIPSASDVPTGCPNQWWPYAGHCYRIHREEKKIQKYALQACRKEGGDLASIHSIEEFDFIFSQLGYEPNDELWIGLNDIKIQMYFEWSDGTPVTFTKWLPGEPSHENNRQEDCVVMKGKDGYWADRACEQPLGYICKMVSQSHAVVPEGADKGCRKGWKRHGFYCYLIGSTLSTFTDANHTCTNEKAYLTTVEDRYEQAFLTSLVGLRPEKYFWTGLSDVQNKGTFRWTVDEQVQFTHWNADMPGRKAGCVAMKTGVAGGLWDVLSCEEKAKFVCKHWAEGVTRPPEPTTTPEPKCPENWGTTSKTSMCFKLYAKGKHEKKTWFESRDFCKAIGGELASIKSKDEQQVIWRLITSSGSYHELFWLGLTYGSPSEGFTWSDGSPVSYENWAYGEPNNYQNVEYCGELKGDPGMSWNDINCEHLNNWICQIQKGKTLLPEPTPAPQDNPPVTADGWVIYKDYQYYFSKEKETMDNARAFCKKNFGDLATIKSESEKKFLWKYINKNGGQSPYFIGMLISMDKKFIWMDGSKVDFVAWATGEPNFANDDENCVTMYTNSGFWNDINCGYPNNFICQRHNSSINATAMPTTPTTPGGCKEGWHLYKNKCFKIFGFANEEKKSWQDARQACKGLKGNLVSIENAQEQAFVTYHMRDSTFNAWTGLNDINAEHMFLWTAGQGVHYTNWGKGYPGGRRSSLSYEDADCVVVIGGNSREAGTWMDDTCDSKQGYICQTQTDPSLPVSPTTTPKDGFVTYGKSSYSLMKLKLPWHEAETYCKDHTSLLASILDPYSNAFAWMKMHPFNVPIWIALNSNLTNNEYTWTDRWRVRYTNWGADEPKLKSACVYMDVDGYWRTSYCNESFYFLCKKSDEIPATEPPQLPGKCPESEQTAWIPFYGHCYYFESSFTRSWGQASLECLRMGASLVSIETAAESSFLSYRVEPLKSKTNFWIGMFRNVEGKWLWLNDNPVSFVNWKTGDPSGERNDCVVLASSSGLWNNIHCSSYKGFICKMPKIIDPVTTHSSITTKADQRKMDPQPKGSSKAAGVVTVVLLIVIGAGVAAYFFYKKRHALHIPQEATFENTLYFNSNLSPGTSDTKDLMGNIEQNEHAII
Description: Mice were anesthetized and intraperitoneally injected with 5 mL of PBS+1% BSA, the abdomen was massaged to detach macrophages and the peritoneal fluid was collected. This procedure typically yielded 5-9×10⁶ cells. Cells were concentrated to 1 mL in the same peritoneal fluid. For FAM-peptide incubation, the peptides were incubated for 30 minutes at 4° C. For antibody incubation the cells were incubated with antibody for 1 h at 4° C. A647 Rat anti-CCR2 (Biolegend, CA, USA. Catalog number 150603) was incubated for 1 h at 4° C. at a dilution of 1/200. FAM-peptides were incubated at a concentration of 0.5 μg/mL, and Rat anti-CD206 (Bio-Rad, CA, USA. Product code MCA2235GA) was incubated at a concentration of 10 μg/mL. Binding of FAM-peptides was monitored with 488 nm channel and CCR2 labeling was assessed in the 647 nm channel using A647 Anti-CCR2 (Biolegend, CA, USA). After incubation of FAM-Peptides or antibodies, the cells were washed 3 times at 4° C. with PBS-Tby centrifugation at 250 g for 6 minutes, followed by flow cytometry analysis (Accuri, BD Biosciences, CA, USA).
The effect of a blocking anti-CD206 antibody on FAM-UNO binding to peritoneal cells isolated from 4T1 tumor mice was studied. Flow cytometry experiments were performed by incubating FAM-peptide with the cells suspended in the peritoneal fluid; this i.p. fluid also contained glutathione (FIG. 24). […]

[5] = biological target: T1, recombinant mouse macrophage mannose …; experiment: fluorescence anisotropy, in solution, kinetic mode

Sequence of recombinant mouse CD163 (Q2VLH6 39-1045 limits assumed): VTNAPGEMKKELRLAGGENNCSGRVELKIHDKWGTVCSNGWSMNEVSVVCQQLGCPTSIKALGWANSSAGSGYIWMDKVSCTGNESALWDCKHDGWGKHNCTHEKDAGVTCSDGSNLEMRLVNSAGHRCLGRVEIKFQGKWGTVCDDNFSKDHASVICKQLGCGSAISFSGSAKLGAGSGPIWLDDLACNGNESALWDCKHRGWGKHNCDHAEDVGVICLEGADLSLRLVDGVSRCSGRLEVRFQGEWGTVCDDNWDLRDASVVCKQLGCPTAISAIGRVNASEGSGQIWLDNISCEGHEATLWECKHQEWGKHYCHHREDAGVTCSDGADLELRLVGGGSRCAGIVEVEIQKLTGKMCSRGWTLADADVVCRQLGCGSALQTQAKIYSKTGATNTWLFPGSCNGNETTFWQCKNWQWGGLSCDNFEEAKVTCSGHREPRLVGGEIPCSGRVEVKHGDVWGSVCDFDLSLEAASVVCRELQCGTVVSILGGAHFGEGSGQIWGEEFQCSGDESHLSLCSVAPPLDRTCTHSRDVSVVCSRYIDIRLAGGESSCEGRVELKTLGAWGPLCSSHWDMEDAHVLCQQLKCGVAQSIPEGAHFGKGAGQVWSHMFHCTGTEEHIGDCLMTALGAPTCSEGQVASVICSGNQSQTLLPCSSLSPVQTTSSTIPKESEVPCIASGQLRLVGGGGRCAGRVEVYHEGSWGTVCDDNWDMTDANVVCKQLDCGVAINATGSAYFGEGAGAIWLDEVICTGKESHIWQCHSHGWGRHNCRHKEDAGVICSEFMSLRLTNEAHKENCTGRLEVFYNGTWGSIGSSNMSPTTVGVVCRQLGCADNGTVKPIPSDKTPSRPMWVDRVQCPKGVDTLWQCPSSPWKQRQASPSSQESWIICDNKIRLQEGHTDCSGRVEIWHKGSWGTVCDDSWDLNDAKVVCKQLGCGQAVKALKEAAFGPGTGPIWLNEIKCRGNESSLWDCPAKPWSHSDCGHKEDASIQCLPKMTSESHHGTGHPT

## rat anti-CD206 antibody (Bio-Rad, product code MCA2235GA)
[1]
  reduction of FAM-UNO binding: 25%

## {FAM-Ahx}-CSPGAK (also called linear CSPGAK) [FAM-CSPGAK]
[2]
  binding result: binds
Recombinant mouse CD163
  binding result: no binding (tested: 50 nM FAM peptide, 1 µM protein)

B1: FAM-UNO (cyclic, disulfide-bridged FAM-labeled CSPGAKVRC) (peptide)
peptide: {FAM-Ahx}-CSPGAKVRC
modifications: disulfide 1-9
notes: Cyclic CX7C peptide from a phage library, used as a synthetic FAM-labeled peptide without reduction; also called FAM-labeled UNO
[3]
  binding result: no binding (tested: 100 nM FAM peptide, 0.4 µM protein)
[4]
  binding result: binds

B2: FAM-CPMTDNE (control peptide) (peptide)
peptide: {FAM-Ahx}-CPMTDNE
notes: Control peptide of the fluorescence anisotropy assay
[5]
  binding result: no binding (tested: 50 nM FAM peptide, 1 µM protein)
